Laboratory results published in the supplement of paper PMC10201428.
± gives the standard deviation of the averaged measurements.

B1: library; a variant is named by its letters at N, in order (parent)
chain: AATGTTGTTGATGCAACCATAAAGTGATATTTAATAATTATTTATAATCAGCAACTTAACCACAAAACAACCATATATTGATATNTCACAAAACAACCATAANTTGATATTTTTGTGAATCGAGTATTTCAGCAAAACTACTGCAGTAAGAA

Experiments:
[1] = variants of: B1; assay: relative integration efficiency (T-LR orientation) vs wild-type transposon end (log2 (normalized fold change)); transposon end mutated: left end; higher = more efficient transposition; conditions: with VchCAST RNA-guided transposition machinery (E. coli BL21(DE3) host, lacZ target)
Method in brief: (§1)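 Co-transformation of E. coli BL21(DE3) combined a pUC57 mini-transposon donor, holding barcoded pools of 1549 left-end or 1849 right-end variants, with a T7-driven plasmid encoding a CRISPR array, tniQ-cas8-cas7-cas6 and tnsA-tnsB-tnsC. After plating with 0.1 mM IPTG at 37°C for 18 h, input plasmids and genomic integration junctions were PCR-amplified and Illumina-sequenced across two biological output replicates, with four reference barcodes. Relative integration efficiency is the normalised, log-transformed output/input barcode fold change.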

[2] = variants of: B1; assay: relative integration efficiency (T-RL orientation) vs wild-type transposon end (log2 (normalized fold change)); transposon end mutated: left end; higher = more efficient transposition; conditions: with VchCAST RNA-guided transposition machinery (E. coli BL21(DE3) host, lacZ target)
Method in brief: as §1

Variant | relative integration efficiency (log2) [1] | relative integration efficiency (log2) [2]
CG T43G A44C A46G T48A C49G A50C C52A A53G T56A T57C A58C | -2.81 ± 2.2 | -2.55 ± 1
CG A33C A34C | -0.259 ± 0.42 | 0.167 ± 0.0038
CG A22T A23T G24C T25A | -1.61 ± 0.58 | -1.21 ± 0.56
CG T45C | -0.0724 ± 0.056 | -0.326 ± 0.093
CG T45A | 0.403 ± 0.63 | -0.0115 ± 0.062
CG A75C | 0.0557 ± 0.24 | 0.219 ± 0.63
TA A16C G24T T30A A70C T76A T86G T104A T110A T113A | -0.858 ± 0.25 | -0.764 ± 0.36
CG G80C A81T T82A A83T | -2 ± 1.1 | -1.88 ± 0.77
CG A90G | -0.331 ± 0.48 | -0.339 ± 0.053
CG G80T | 0.0932 ± 0.91 | -0.44 ± 0.42
CG G80C | -1.47 ± 0.43 | -2.06 ± 0.66
CG G117C A118T | 0.236 ± 0.11 | 0.235 ± 0.026
CG T43A | 0.341 ± 0.042 | 0.0102 ± 0.024
CG A34C T35G | 0.139 ± 0.22 | -0.109 ± 0.025
TA A22T G24T T31C A33C T76A A77G C87T A102T T111C T113C | -0.361 ± 0.78 | -0.688 ± 0.55
CG T111A T112A T113A T114A | -0.629 ± 0.047 | -0.668 ± 0.39
CG G51T C52A A53C A54C | -0.964 ± 0.62 | -0.488 ± 0.45
CG A34C T35C A36G T38C A40G T42C A44G T45C A46C A53C A62G A65G A66C | -1.83 ± 0.73 | -1.68 ± 0.71
CG A15T | 0.37 ± 0.27 | -0.148 ± 0.14
CG T41C | 1.29 ± 0.16 | 0.304 ± 0.26

Variant | relative integration efficiency (log2) [1] | relative integration efficiency (log2) [2]
CG C94G A95T | -2.11 ± 0.65 | -1.23 ± 0.53
CG A47T T48A | 0.0225 ± 0.3 | 0.341 ± 0.033
CG A21C A22C A23C G24T | -0.914 ± 0.79 | -1.03 ± 0.74
CG A15T A16T | -0.556 ± 0.6 | -0.219 ± 0.36
CG A33C A34C T35G A36C | -0.094 ± 0.018 | -0.077 ± 0.049
CG T82G A83C | -1.19 ± 0.87 | -1.4 ± 0.66
CG A118C A119C T120G C121A G122T A123C G124T T125G | -0.0272 ± 0.24 | 0.0769 ± 0.16
TG G24A T30A A70C T76A T84A C87A | 0.298 ± 0.13 | -0.172 ± 0.16
CG C14A | -0.739 ± 0.55 | -0.546 ± 0.32
CG A58T A59T | 0.226 ± 0.49 | -0.00421 ± 0.16
CG T39G A40C | -0.0204 ± 0.26 | -0.535 ± 0.23
CG A58C A59C C60A C61A | 0.829 ± 0.17 | 1.06 ± 0.036
TG A16C G24T T30A A70C T76A T84A C87A | -0.916 ± 0.88 | -0.362 ± 0.11
CA A102T T111C T113C | 0.118 ± 0.59 | -0.254 ± 0.41
CG T111A | -0.0724 ± 0.42 | -0.134 ± 0.076
CG A15C A16C | -0.641 ± 0.48 | 0.081 ± 0.27
CG A77C | 0.611 ± 0.89 | 0.337 ± 0.052
TA A16C G24T T32G A33C T76A T78A T84A C87A A102T T111C T113C | -0.59 ± 0.77 | -0.405 ± 0.22
TA T76A A77G C87T A96C T110A T113A | -0.108 ± 0.52 | -0.522 ± 0.3
CG T25G G26T | -0.611 ± 0.7 | -0.737 ± 0.33

Variant | relative integration efficiency (log2) [1] | relative integration efficiency (log2) [2]
CG T31A T32A A33T A34T | 0.0738 ± 0.43 | -0.0923 ± 0.16
CG G26C G80C G106C | -5.11 ± 2.5 | -6.9 ± 1.7
TA A16C G24T T30A T76A T78G C87A T104G T113A | -0.0106 ± 0.39 | -0.0789 ± 0.27
CC A102T | 0.202 ± 0.2 | -0.155 ± 0.12
CG A70C C71A C72A A73C | -2 ± 1.7 | -2.13 ± 0.84
GG T31A T32A A33T T86A C87G T111A T112A T113A | -0.524 ± 0.35 | -0.495 ± 0.72
TA A23G G24T A33T T76A A77G C87T T104G T113A | 0.309 ± 0.37 | -0.339 ± 0.36
CG A40G T42G T43A A44G T45C A46G A47G T48A C49T G51A | -1.07 ± 0.8 | -1.29 ± 0.32
CG A22T A23T | -0.158 ± 0.56 | -0.421 ± 0.27
CA A22T G24T T31C A33C A102T T111C T113C | -0.528 ± 0.39 | -0.843 ± 0.57
TA A16C G24T T30A T76A T78G C87A A96C T110A T113A | 0.235 ± 1.1 | 0.17 ± 0.13
CG T74A A75T | -0.113 ± 0.66 | -0.22 ± 0.27
CG T42A | 0.162 ± 0.27 | 0.471 ± 0.051
CG T42C | 0.252 ± 0.45 | 0.37 ± 0.039
CG A65C A66C A67C C68A | -1.01 ± 0.56 | -0.474 ± 0.22
CG G13T | -0.887 ± 0.83 | 0.0664 ± 0.041
TA A23G G24T A33T A70C T76A T84A C87A T104A T110A T113A | -0.119 ± 0.32 | -0.0493 ± 0.28
CG T8A T9A | -0.985 ± 0.14 | -0.297 ± 0.11
